Test results reported in publication PMC8417553 (2021).

Biological target: CCL11 (eotaxin-1) 24-97 (Homo sapiens, UniProt P51671)
Experiment: fluorescence polarization

Chain of CCL11 (eotaxin-1) 24-97 (P51671 24-97): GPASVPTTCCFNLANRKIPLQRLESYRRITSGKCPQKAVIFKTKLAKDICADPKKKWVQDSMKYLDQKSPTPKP

B1: CCR3 (protein)
chain: MTTSLDTVETFGTTSYYDDVGLLCEKADTRALMAQFVPPLYSLVFTVGLLGNVVVVMILIKYRRLRIMTNIYLLNLAISDLLFLVTLPFWIHYVRGHNWVFGHGMCKLLSGFYHTGLYSEIFFIILLTIDRYLAIVHAVFALRARTVTFGVITSIVTWGLAVLAALPEFIFYETEELFEETLCSALYPEDTVYSWRHFHTLRMTIFCLVLPLLVMAICYTGIIKTLLRCPSKKKYKAIRLIFVIMAVFFIFWTPYNVAILLSSYQSILFGNDCERSKHLDLVMLVTEVIAYSHCCMNPVIYAFVGERFRKYLRHFFHRHLLMHLGRYIPFLPSEKLERTSSVSPSTAEPELSIVF
modifications: FITC-labeled CCL11, POPC SMALPs with 30% cholesterol
Kd: 30 nM

B2: CCR3 (protein)
chain: B1 chain
modifications: FITC-labeled CCL11, proteoliposomes with 60% cholesterol
Kd: 11 nM

B3: CCR3 (protein)
chain: B1 chain
modifications: FITC-labeled CCL11, proteoliposomes with 40% cholesterol
Kd: 20 nM
